Target: T1, HA tag-carrying soluble HM1.24 antigen sHM164 (HM1.24 antigen extracellular region in which the C terminal … (human, UniProt Q10589 49-163, limits assumed))
T1 construct: also called HA-sHM164
T1 sequence: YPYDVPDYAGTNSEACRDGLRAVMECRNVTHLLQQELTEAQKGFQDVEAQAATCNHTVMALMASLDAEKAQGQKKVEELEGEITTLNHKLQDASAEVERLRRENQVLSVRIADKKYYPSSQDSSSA
Experiment: sandwich ELISA: anti-HA antibody coated, CHO culture supernatant, humanized anti-HM1.24 antibody as detector, AP-labeled anti-human IgG
Method: The soluble human HM1.24 ELISA described below was conducted as follows. In order to select a highly productive strain, the amount of the soluble protein produced was compared by a sandwich ELISA using anti-HA antibody (Boehringer Mannheim) and a humanized anti-HM1.24 antibody (K. Ono et al., The 20th Japan Molecular Biology Annual Meeting, General Lecture 3-501-P-478), whereby selecting the strain. Since the antigen concentration was not known because a purified antigen was not obtained, the number of the cells upon the ELISA was taken into account when comparing the concentration.
An anti-HA antibody (Boehringer Mannheim) was adjusted at 1 μg/ml in a Coating Buffer (C.B.: 0.1 mol/L sodium bicarbonate buffer, pH 9.6, 0.2% sodium azide) was added to a plane bottom 96-well plate (Nunc) in the volume of 100 μl/well, and coated overnight at 4° C.

binding result: binds
B1: reconstructed human anti-HM1.24 antibody (humanized anti-HM1.24 antibody), light chain version a and heavy chain version s described in WO98/14580 (antibody, V domains shown)
VH: QVQLVQSGAEVKKPGASVKVSCKASGYTFTPYWMQWVRQAPGQGLEWMGSIFPGDGDTRYSQKFKGRVTITADKSTSTAYMELSSLRSEDTAVYYCARGLRRGGYYFDYWGQGTTVTVSS
VL: DIQMTQSPSSLSASVGDRVTITCKASQDVNTAVAWYQQKPGKAPKLLIYSASNRYTGVPSRFSGSGSGTDFTFTISSLQPEDIATYYCQQHYSTPFTFGQGTKVEIK
notes: Plasmid names point to a human gamma 1 heavy and a kappa light constant region; It was detected with an anti-human IgG antibody in the ELISA

From US20060153883A1 (Chugai, published 2006)
